Source: patent publication US20240409617A1

Target: S1
Assay: BLI

Work on CR3022 IgG yielded a Kd of under 1 pM.
